Like-named read-outs stand apart in the source and are kept apart here.
How the values were obtained:
[1] = target: T1, Anti-CD28 scFv (VH-linker 1-VL) (biotinylated (site not stated)); assay: phage ELISA, captured biotinylated scFv; background signal 0.073
T1 construct: biotinylated and captured on neutravidin coated plates in the phage ELISA

[2] = target: T1, Anti-CD28 scFv (VH-linker 1-VL); assay: phage ELISA, scFv wells pre-incubated with soluble CD28 (competitor); background signal 0.073
[3] = target: T1, Anti-CD28 scFv (VH-linker 1-VL); assay: phage ELISA, captured biotinylated scFv; background signal 0.072
[4] = target: T1, Anti-CD28 scFv (VH-linker 1-VL); assay: phage ELISA, scFv wells pre-incubated with soluble CD28 (competitor); background signal 0.072
[5] = target: T1, Anti-CD28 scFv (VH-linker 1-VL); assay: phage ELISA, captured biotinylated scFv; background signal 0.061
[6] = target: T1, Anti-CD28 scFv (VH-linker 1-VL); assay: phage ELISA, scFv wells pre-incubated with soluble CD28 (competitor); background signal 0.061
[7] = target: T1, Anti-CD28 scFv (VH-linker 1-VL); assay: phage ELISA, captured biotinylated scFv; background signal 0.063
[8] = target: T1, Anti-CD28 scFv (VH-linker 1-VL); assay: phage ELISA, scFv wells pre-incubated with soluble CD28 (competitor); background signal 0.063
[9] = target: T1, Anti-CD28 scFv (VH-linker 1-VL); assay: phage ELISA, captured biotinylated scFv; background signal 0.068
[10] = target: T1, Anti-CD28 scFv (VH-linker 1-VL); assay: phage ELISA, scFv wells pre-incubated with soluble CD28 (competitor); background signal 0.068
[11] = target: T1, Anti-CD28 scFv (VH-linker 1-VL); assay: phage ELISA, captured biotinylated scFv; background signal 0.078
[12] = target: T1, Anti-CD28 scFv (VH-linker 1-VL); assay: phage ELISA, scFv wells pre-incubated with soluble CD28 (competitor); background signal 0.078
[13] = target: T1, Anti-CD28 scFv (VH-linker 1-VL); assay: phage ELISA, captured biotinylated scFv; background signal 0.066
[14] = target: T1, Anti-CD28 scFv (VH-linker 1-VL); assay: phage ELISA, scFv wells pre-incubated with soluble CD28 (competitor); background signal 0.066
[15] = target: T1, Anti-CD28 scFv (VH-linker 1-VL); assay: phage ELISA, captured biotinylated scFv; background signal 0.079
[16] = target: T1, Anti-CD28 scFv (VH-linker 1-VL); assay: phage ELISA, scFv wells pre-incubated with soluble CD28 (competitor); background signal 0.079
[17] = target: T2, Ab-12, anti-PD-L1xCD28 non-masked antibody in Vh format; assay: competition ELISA: peptide titrated against 5 nM Ab-12; binding of Ab-12 to captured biotinylated CD28 antigen is read
T2 construct: also called PDL1xCD28 non-masked (Vh)

[18] = target: T2, Ab-12, anti-PD-L1xCD28 non-masked …; assay: as above; remark: listed apart in the source
[19] = target: T2, Ab-12, anti-PD-L1xCD28 non-masked …; assay: as above; remark: listed apart in the source
[20] = target: T3, anti-CD28 scFv (SEQ ID NO: 9); assay: competition ELISA: peptide titrated against 2 nM anti-CD28 scFv; binding of the scFv to captured biotinylated CD28 antigen is read
T3 construct: also called Anti-CD28 scFv (VH-linker 1-VL)

[21] = target: T3, anti-CD28 scFv (SEQ ID NO: 9); assay: as above; remark: listed apart in the source
[22] = target: T3, anti-CD28 scFv (SEQ ID NO: 9); assay: as above; remark: listed apart in the source
[23] = target: T3, anti-CD28 scFv (SEQ ID NO: 9); assay: as above; remark: listed apart in the source

## MNWCPKDIWYLCFN [Phage-22]
[1]
  Phage binding ELISA CD28 scFv signal: 2.62
[2]
  Phage binding ELISA CD28 scFv signal in presence of CD28: 0.168

## MDWCPVHLWSVCFA [Phage-38]
[3]
  Phage binding ELISA CD28 scFv signal: 2.65
[4]
  Phage binding ELISA CD28 scFv signal in presence of CD28: 0.302

## MDWCPIDMWDQCFN [Phage-40]
[5]
  Phage binding ELISA CD28 scFv signal: 2.66
[6]
  Phage binding ELISA CD28 scFv signal in presence of CD28: 0.297

## MDWCPRDLWHECFA [Phage-26]
[7]
  Phage binding ELISA CD28 scFv signal: 2.71
[8]
  Phage binding ELISA CD28 scFv signal in presence of CD28: 0.277

## MDWCPRYLWHVCFA [Phage-36]
[3]
  Phage binding ELISA CD28 scFv signal: 2.48
[4]
  Phage binding ELISA CD28 scFv signal in presence of CD28: 0.226

## MDWCPRALWAECFN [Phage-63]
[9]
  Phage binding ELISA CD28 scFv signal: 2.68
[10]
  Phage binding ELISA CD28 scFv signal in presence of CD28: 0.339

## MDWCPRPLWHECFS [Phage-45]
[11]
  Phage binding ELISA CD28 scFv signal: 2.35
[12]
  Phage binding ELISA CD28 scFv signal in presence of CD28: 0.121

## MDWCPRDLWAECFN [Phage-107]
[6]
  Phage binding ELISA CD28 scFv signal in presence of CD28: 0.207

## MDWCPIYLWDECFN [Phage-106]
[6]
  Phage binding ELISA CD28 scFv signal in presence of CD28: 0.215

## MDWCPRDLWHECFS [Phage-79]
[13]
  Phage binding ELISA CD28 scFv signal: 2.65
[14]
  Phage binding ELISA CD28 scFv signal in presence of CD28: 0.382

## MDWCPRHLWAECFF [Phage-86]
[13]
  Phage binding ELISA CD28 scFv signal: 2.61
[14]
  Phage binding ELISA CD28 scFv signal in presence of CD28: 0.292

## MDWCPRFMWDECFN [Phage-33]
[15]
  Phage binding ELISA CD28 scFv signal: 2.68
[16]
  Phage binding ELISA CD28 scFv signal in presence of CD28: 0.256

## MDWCPRYLWFECFA [Phage-114]
[13]
  Phage binding ELISA CD28 scFv signal: 2.5
[14]
  Phage binding ELISA CD28 scFv signal in presence of CD28: 0.21

## MHWCPVDLWYLCYN [Phage-37]
[15]
  Phage binding ELISA CD28 scFv signal: 2.66
[16]
  Phage binding ELISA CD28 scFv signal in presence of CD28: 0.417

## MDWCPIHLWHYCFN [Phage-88]
[11]
  Phage binding ELISA CD28 scFv signal: 2.6
[12]
  Phage binding ELISA CD28 scFv signal in presence of CD28: 0.453

## MDWCPRDLWDLCFA [Phage-25]
[11]
  Phage binding ELISA CD28 scFv signal: 2.7
[12]
  Phage binding ELISA CD28 scFv signal in presence of CD28: 0.219

## MVSCPTTMWNRCFN [Phage-61]
[15]
  Phage binding ELISA CD28 scFv signal: 1.33
[16]
  Phage binding ELISA CD28 scFv signal in presence of CD28: 0.072

## IDWCPRYLWDECYN [Phage-48]
[5]
  Phage binding ELISA CD28 scFv signal: 2.24
[6]
  Phage binding ELISA CD28 scFv signal in presence of CD28: 0.153

## MDWCPRDSWHLCFA [Phage-59]
[1]
  Phage binding ELISA CD28 scFv signal: 2.45
[2]
  Phage binding ELISA CD28 scFv signal in presence of CD28: 0.147

## MDWCPKDLWDYCFA [Phage-97]
[11]
  Phage binding ELISA CD28 scFv signal: 2.57
[12]
  Phage binding ELISA CD28 scFv signal in presence of CD28: 0.165

## MDWCPMDLWYQCFN [Phage-85]
[7]
  Phage binding ELISA CD28 scFv signal: 2.62
[8]
  Phage binding ELISA CD28 scFv signal in presence of CD28: 0.187

B1: Phage-56 (second entry so labelled, SEQ ID NO: 255) (peptide)
peptide: MDWCPRYLWNECFY
notes: label printed as Phage-56 between Phage-65 and Phage-67, probably Phage-66
[15]
  Phage binding ELISA CD28 scFv signal: 2.54
[16]
  Phage binding ELISA CD28 scFv signal in presence of CD28: 0.358

## MDWCPIDLWNECFF [Phage-19]
[13]
  Phage binding ELISA CD28 scFv signal: 2.52
[14]
  Phage binding ELISA CD28 scFv signal in presence of CD28: 0.187

## MDWCPPYLWNVCFS [Phage-50]
[7]
  Phage binding ELISA CD28 scFv signal: 1.64
[8]
  Phage binding ELISA CD28 scFv signal in presence of CD28: 0.1

## MDWCPRDLWYACFA [Phage-116]
[3]
  Phage binding ELISA CD28 scFv signal: 2.47
[4]
  Phage binding ELISA CD28 scFv signal in presence of CD28: 0.242

## MDWCPRDLWSECFF [Phage-28]
[9]
  Phage binding ELISA CD28 scFv signal: 2.57
[10]
  Phage binding ELISA CD28 scFv signal in presence of CD28: 0.218

## MNWCPRDMWYQCFN [Phage-54]
[9]
  Phage binding ELISA CD28 scFv signal: 1.95
[10]
  Phage binding ELISA CD28 scFv signal in presence of CD28: 0.177

## MDWCPRSHWHVCYN [Phage-75]
[3]
  Phage binding ELISA CD28 scFv signal: 1.95
[4]
  Phage binding ELISA CD28 scFv signal in presence of CD28: 0.281

## MDWCPMHLWHQCFN [Phage-39]
[1]
  Phage binding ELISA CD28 scFv signal: 2.56
[2]
  Phage binding ELISA CD28 scFv signal in presence of CD28: 0.299

## MDWCPRERWVDCFF [Peptide-51]
[17]
  IC50: 2.45 µM
[18]
  IC50: 2.43 µM
[19]
  IC50: 2.62 µM
[20]
  IC50 (read off the curve): ~2 µM
[21]
  IC50: 1.37 µM
[22]
  IC50: 1.65 µM
[23]
  IC50: 1.63 µM
